B1: PPP2R2B (parent)
chain: RNTKRDVTLEASRENSKPRAILKP

Variants of: B1
Test: protein stability index of a GFP-peptide fusion (GPS, HEK-293T) (PSI 1-6); higher = more stable
Conditions: c terminus: a fixed tail appended
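Also: lentivirally expressed fusions sorted by FACS into six bins by GFP to DsRed ratio, PSI derived from sequencing read proportions per bin multiplied by bin number.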

Compared with RNTKRDVTLEASRENSKPRAILKS [P24S], RNTKRDVTLEASRENSKPRAILKC [P24C] is lower in protein stability index: 4.49 for the first, 4.44 for the second.

Compared with RNTKRDVTLEASRENSKPRAILKA [P24A], RNTKRDVTLEASRENSKPRAILKD [P24D] is lower in protein stability index: 4.74 for the first, 3.69 for the second.

Compared with RNTKRDVTLEASRENSGPRAILKP [K17G], RNTKRDVTLEASRENSSPRAILKP [K17S] is lower in protein stability index: 4.89 for the first, 4.04 for the second.

Going from RNTKRDVTLEASRENSRPRAILKP [K17R] to RNTKRDVTLEASRENSMPRAILKP [K17M], the protein stability index rises from 4.38 to 4.69.

Going from RNTKRDVTLEASRENSTPRAILKP [K17T] to RNTKRDVTLEASRENSHPRAILKP [K17H], the protein stability index falls from 4.71 to 4.47.

Compared with RNTKRDVTLEASRENSAPRAILKP [K17A], RNTKRDVTLEASRENSDPRAILKP [K17D] is lower in protein stability index: 4.66 for the first, 4.57 for the second.

Going from RNTTRDVTLEASRENSKPRAILKP [K4T] to RNTHRDVTLEASRENSKPRAILKP [K4H], the protein stability index rises from 4.82 to 4.84.

RNTYRDVTLEASRENSKPRAILKP [K4Y] and RNTFRDVTLEASRENSKPRAILKP [K4F] are the same in protein stability index: 4.42 for the first, 4.42 for the second.

First: RNTARDVTLEASRENSKPRAILKP [K4A]
Second: RNTERDVTLEASRENSKPRAILKP [K4E]
The protein stability index of the first is lower: 4.43 for the first, 4.6 for the second.

Compared with RNTVRDVTLEASRENSKPRAILKP [K4V], RNTIRDVTLEASRENSKPRAILKP [K4I] is higher in protein stability index: 4.19 for the first, 4.29 for the second.

Compared with RNTKRDVTAEASRENSKPRAILKP [L9A], RNTKRDVTREASRENSKPRAILKP [L9R] is lower in protein stability index: 4.9 for the first, 4.84 for the second.

Compared with RNTKRDVTMEASRENSKPRAILKP [L9M], RNTKRDVTCEASRENSKPRAILKP [L9C] is lower in protein stability index: 4.84 for the first, 4.78 for the second.

First: RNTKRDVTQEASRENSKPRAILKP [L9Q]
Second: RNTKRDVTSEASRENSKPRAILKP [L9S]
The protein stability index of the first is higher: 5.07 for the first, 4.89 for the second.

First: RNTKRDVTDEASRENSKPRAILKP [L9D]
Second: RNTKRDVTVEASRENSKPRAILKP [L9V]
The protein stability index of the first is higher: 5.09 for the first, 4.59 for the second.

First: RNTKRDVTTEASRENSKPRAILKP [L9T]
Second: RNTKRDVTGEASRENSKPRAILKP [L9G]
The protein stability index of the first is higher: 4.96 for the first, 4.88 for the second.

Going from RNTKRDVTPEASRENSKPRAILKP [L9P] to RNTKRVVTLEASRENSKPRAILKP [D6V], the protein stability index falls from 4.4 to 4.08.

Going from RNTKRIVTLEASRENSKPRAILKP [D6I] to RNTKRMVTLEASRENSKPRAILKP [D6M], the protein stability index rises from 3.64 to 4.33.

Going from RNTKRQVTLEASRENSKPRAILKP [D6Q] to RNTKRAVTLEASRENSKPRAILKP [D6A], the protein stability index rises from 4.46 to 4.64.

First: RNTKYDVTLEASRENSKPRAILKP [R5Y]
Second: RNTKCDVTLEASRENSKPRAILKP [R5C]
The protein stability index of the first is lower: 4.26 for the first, 4.43 for the second.

First: RNTKADVTLEASRENSKPRAILKP [R5A]
Second: RNTKDDVTLEASRENSKPRAILKP [R5D]
The protein stability index of the first is higher: 5.17 for the first, 4.68 for the second.

Compared with RNTKVDVTLEASRENSKPRAILKP [R5V], RNTKPDVTLEASRENSKPRAILKP [R5P] is lower in protein stability index: 4.91 for the first, 4.79 for the second.

First: RNTKWDVTLEASRENSKPRAILKP [R5W]
Second: RNTKQDVTLEASRENSKPRAILKP [R5Q]
The protein stability index of the first is lower: 3.87 for the first, 4.54 for the second.

First: RNTKRDVTLEASRENSKPRVILKP [A20V]
Second: RNTKRDVTLEASRENSKPRIILKP [A20I]
The protein stability index of the first is higher: 4.38 for the first, 4.32 for the second.

First: RNTKRDVTLEASRENSKPRPILKP [A20P]
Second: RNTKRDVTLEASRENSKPRWILKP [A20W]
The protein stability index of the first is higher: 4.3 for the first, 3.3 for the second.

Compared with RNTKRDVTLEASRENSKPRDILKP [A20D], RNTKRDVTLEASRENSKPRSILKP [A20S] is lower in protein stability index: 4.64 for the first, 4.48 for the second.

First: RNTKRDVTLEASRENSKPRQILKP [A20Q]
Second: RNTKRDCTLEASRENSKPRAILKP [V7C]
The protein stability index of the first is higher: 4.44 for the first, 3.77 for the second.

First: RNTKRDMTLEASRENSKPRAILKP [V7M]
Second: RNTKRDHTLEASRENSKPRAILKP [V7H]
The protein stability index of the first is higher: 4.81 for the first, 4.67 for the second.

Going from RNTKRDDTLEASRENSKPRAILKP [V7D] to RNTKRDYTLEASRENSKPRAILKP [V7Y], the protein stability index falls from 4.86 to 4.63.

Going from RNTKRDLTLEASRENSKPRAILKP [V7L] to RNTKRDKTLEASRENSKPRAILKP [V7K], the protein stability index rises from 4.42 to 4.6.

First: RNTKRDVTLEASRENSKPRAWLKP [I21W]
Second: RNTKRDVTLEASRENSKPRAMLKP [I21M]
The protein stability index of the first is higher: 4.7 for the first, 4.67 for the second.

First: RNTKRDVTLEASRENSKPRARLKP [I21R]
Second: RNTKRDVTLEASRENSKPRATLKP [I21T]
The protein stability index of the first is higher: 5.35 for the first, 4.5 for the second.

Going from RNTKRDVTLEASRENSKPRACLKP [I21C] to RNTKRDVTLEASRENSKPRAELKP [I21E], the protein stability index rises from 4.85 to 5.34.

First: RNTKRDVTLEASRENSKPRANLKP [I21N]
Second: RNTKRDVTLEASRENSKPFAILKP [R19F]
The protein stability index of the first is higher: 4.68 for the first, 4.12 for the second.

Going from RNTKRDVTLEASRENSKPYAILKP [R19Y] to RNTKRDVTLEASRENSKPTAILKP [R19T], the protein stability index rises from 4.21 to 4.52.

Compared with RNTKRDVTLEASRENSKPCAILKP [R19C], RNTKRDVTLEASRENSKPMAILKP [R19M] is lower in protein stability index: 4.69 for the first, 4.44 for the second.

Compared with RNTKRDVTLEASRENSKPVAILKP [R19V], RNTKRDVTLEASRENSKPWAILKP [R19W] is lower in protein stability index: 4.72 for the first, 3.98 for the second.

First: RNTKRDVTLEASRENSKPDAILKP [R19D]
Second: RNTKRDVTLEASRENSKPQAILKP [R19Q]
The protein stability index of the first is higher: 4.86 for the first, 4.75 for the second.

Going from RNTKRDVTLEASRENSKPNAILKP [R19N] to RNTKRDVTLEASRENSKPGAILKP [R19G], the protein stability index rises from 4.7 to 4.86.

Compared with RNTKRDVTLEARRENSKPRAILKP [S12R], RNTKRDVTLEAKRENSKPRAILKP [S12K] is lower in protein stability index: 4.41 for the first, 4.34 for the second.

Going from RNTKRDVTLEAERENSKPRAILKP [S12E] to RNTKRDVTLEANRENSKPRAILKP [S12N], the protein stability index falls from 4.95 to 4.43.

Going from RNTKRDVTLEAARENSKPRAILKP [S12A] to RNTKRDVTLEACRENSKPRAILKP [S12C], the protein stability index falls from 4.12 to 3.95.

Compared with RNTKRDVTLEAWRENSKPRAILKP [S12W], RNTKRDVTLEAYRENSKPRAILKP [S12Y] is higher in protein stability index: 3.79 for the first, 4.18 for the second.

Going from RNTKRDVTLEAHRENSKPRAILKP [S12H] to RNTKRDVTLEATRENSKPRAILKP [S12T], the protein stability index rises from 4.73 to 4.79.

Compared with RNTKRDVTLEAGRENSKPRAILKP [S12G], NNTKRDVTLEASRENSKPRAILKP [R1N] is lower in protein stability index: 5.13 for the first, 4.79 for the second.

First: HNTKRDVTLEASRENSKPRAILKP [R1H]
Second: DNTKRDVTLEASRENSKPRAILKP [R1D]
The protein stability index of the first is lower: 4.72 for the first, 4.97 for the second.

MNTKRDVTLEASRENSKPRAILKP [R1M] and VNTKRDVTLEASRENSKPRAILKP [R1V] are the same in protein stability index: 4.44 for the first, 4.44 for the second.

Compared with SNTKRDVTLEASRENSKPRAILKP [R1S], LNTKRDVTLEASRENSKPRAILKP [R1L] is higher in protein stability index: 4.47 for the first, 4.62 for the second.

— the supplement of paper PMC10567573
